Experimental data as given in patent US20250179183A1 (BIOMOLECULAR, published 2025).
Where two headings read alike, the source gives them in different places.

Experiments:
[1] = target: T1, cynomolgus monkey CD64 (cynomolgus monkey, UniProt A0A2K5U901 33-309)
[2] = target: cynomolgus monkey CD32a (cynomolgus monkey)
[3] = target: cynomolgus monkey CD32b (cynomolgus monkey)
[4] = target: T1, cynomolgus monkey CD64; remark: listed apart in the source
[5] = target: cynomolgus monkey CD32a (cynomolgus monkey); remark: listed apart in the source
[6] = target: cynomolgus monkey CD32b (cynomolgus monkey); remark: listed apart in the source

T1 sequence (A0A2K5U901 entry or part of it limits assumed, form in doubt): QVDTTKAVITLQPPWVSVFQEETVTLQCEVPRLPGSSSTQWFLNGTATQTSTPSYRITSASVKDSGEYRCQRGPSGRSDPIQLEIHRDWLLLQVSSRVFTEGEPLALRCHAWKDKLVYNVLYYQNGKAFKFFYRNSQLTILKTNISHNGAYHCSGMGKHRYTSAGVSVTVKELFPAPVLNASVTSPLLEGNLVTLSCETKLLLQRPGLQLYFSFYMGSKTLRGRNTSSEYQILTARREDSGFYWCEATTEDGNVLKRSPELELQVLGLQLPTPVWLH

B1: Rituximab (antibody)
VH: not shown
VL: QIVLSQSPAILSASPGEKVTMTCRASSSVSYIHWFQQKPGSSPKPWIYATSNLASGVPVRFSGSGSGTSYSLTISRVEAEDAATYYCQQWTSNPPTFGGGTKLEIKRTVAAPSVFIFPPSDEQLKSGTASVVCLLNNFYPREAKVQWKVDNALQSGNSQESVTEQDSKDSTYSLSSTLTLSKADYEKHKVYACEVTHQGLSSPVTKSFNRGEC
- Kd [1]: < 0.02 nM

B2: Tafasitamab (antibody, human IgG1, kappa)
heavy: EVQLVESGGGLVKPGGSLKLSCAASGYTFTSYVMHWVRQAPGKGLEWIGYINPYNDGTKYNEKFQGRVTISSDKSISTAYMELSSLRSEDTAMYYCARGTYYYGTRVFDYWGQGTLVTVSSASTKGPSVFPLAPSSKSTSGGTAALGCLVKDYFPEPVTVSWNSGALTSGVHTFPAVLQSSGLYSLSSVVTVPSSSLGTQTYICNVNHKPSNTKVDKKVEPKSCDKTHTCPPCPAPELLGGPDVFLFPPKPKDTLMISRTPEVTCVVVDVSHEDPEVQFNWYVDGVEVHNAKTKPREEQFNSTFRVVSVLTVVHQDWLNGKEYKCKVSNKALPAPEEKTISKTKGQPREPQVYTLPPSREEMTKNQVSLTCLVKGFYPSDIAVEWESNGQPENNYKTTPPMLDSDGSFFLYSKLTVDKSRWQQGNVFSCSVMHEALHNHYTQKSLSLSPG
light: DIVMTQSPATLSLSPGERATLSCRSSKSLQNVNGNTYLYWFQQKPGQSPQLLIYRMSNLNSGVPDRFSGSGSGTEFTLTISSLEPEDFAVYYCMQHLEYPITFGAGTKLEIKRTVAAPSVFIFPPSDEQLKSGTASVVCLLNNFYPREAKVQWKVDNALQSGNSQESVTEQDSKDSTYSLSSTLTLSKADYEKHKVYACEVTHQGLSSPVTKSFNRGEC
- Kd [2]: 181 nM
- Kd [3]: 152 nM
- Kd [4]: 1.8 nM
- Kd [5]: 76.2 nM
- Kd [6]: 53 nM
- Kd [1]: < 0.02 nM

B3: HB2198 (bispecific antibody, human IgG1, kappa)
heavy 1: QVQLVQSGGGVVQPGRSLRLSCAASGVSLPDYGVSWVRKAPGKGLEWVAVIWGSETTYYNSALKSRFTISRDNSKNTLYLQMSSLRAEDTAVYYCAKHYYYGGSFAMDYWGQGTLVTVSSASTKGPSVFPLAPSSKSTSGGTAALGCLVKDYFPEPVTVSWNSGALTSGVHTFPAVLQSSGLYSLESVVTVPSSSLGTQTYICNVNHKPSNTKVDKKVEPKSCTDWSPYADQSIKVRISLKSALGDKAYEWNDNEMYLFRSSVAYAMRQYFLKVKNQMILFGEEDVRVANLKPRISFNFFVTAPKNVSDIIPRTEVEKAIRMSRSRINDAFRLNDNSLEFLGIQPTLGPPNQPPVSTSTSPTRSMAPGAVHLPQPVSTRDKTHTCPPCPAPELLGGPDVFLFPPKPKDTLMISRTPEVTCVVVDVSHEDPEVKFNWYVDGVEVHNAKTKPREEQYNSTYRVVSVLTVLHQDWLNGKEYKCKVSNKALPAPEEKTISKAKGQPREPQVCTLPPSRDELTKNQVSLSCAVKGFYPSDIAVEWESNGQPENNYKTTPPVLDSDGSFFLVSKLTVDKSRWQQGNVFSCSVMHEALHNRFTQKSLSLSPG
heavy 2: QIVLSQSPAILSASPGEKVTMTCRASSSVSYIHWFQKKPGSSPKPWIYATSNLASGVPVRFSGSGSGTSYSLTISRVEAEDAATYYCQQWTSNPPTFGGGTKVEIKSSASTKGPSVFPLAPSSKSTSGGTAALGCLVKDYFPEPVTVSWNSGALTSGVHTFPAVLQSSGLYSLKSVVTVPSSSLGTQTYICNVNHKPSNTKVDKKVEPKSCDKTHTCPPCPAPELLGGPDVFLFPPKPKDTLMISRTPEVTCVVVDVSHEDPEVKFNWYVDGVEVHNAKTKPREEQYNSTYRVVSVLTVLHQDWLNGKEYKCKVSNKALPAPEEKTISKAKGQPREPQVYTLPPCRDELTKNQVSLWCLVKGFYPSDIAVEWESNGQPENNYKTTPPVLDSDGSFFLYSKLTVDKSRWQQGNVFSCSVMHEALHNHYTQKSLSLSPG
light 1: DIQMTQSPSSLSASVGDRVTITCRASQDISKYLNWYQEKPGKAIKLLIYHTSRLHSGVPSRFSGSGSGTDFTLTISSLQPEDFATYYCQQGATLPYTFGPGTKLEIKRTVAAPSVFIFPPSDEQLKSGTASVKCLLNNFYPREAKVQWKVDNALQSGNSQESVTEQDSKDSTYSLSSTLTLSKADYEKHKVYACEVTHQGLSSPVTKSFNRGEC
light 2: QVQLQQPGAELVKPGASVKMSCKASGYTFTSYNMHWVKETPGRGLEWIGAIYPGNGDTSYNQKFKGKATLTADKSSSTAYMQLSSLTSEDSAVYYCARSTYYGGDWYFNVWGAGTLVTVSSASVAAPSVFIFPPSDEQLKSGTASVECLLNNFYPREAKVQWKVDNALQSGNSQESVTEQDSKDSTYSLSSTLTLSKADYEKHKVYACEVTHQGLSSPVTKSFNRGEC
- Kd [2]: 4 nM
- Kd [3]: 3.4 nM
- Kd [4]: < 0.02 nM
- Kd [5]: 305 nM
- Kd [6]: 218 nM
- Kd [1]: < 0.02 nM
